Measurements reported in paper PMC9852238 (Nature Communications, 2023).
Residue numbers refer to the chain shown, from its start.

B1: FP-12A (antibody, V domains shown)
VH: EVQLVESGGGVVQPGRSLRLSCAASGFTFSSYGMHWVRQAPGKGLEWVAVISYDGSNKYYADSVKGRFTISRDNSKNTLYLQMNSLRAEDTAVYYCANGFGEYYYYAMDVWGQGTTVTVSS
VL: NFMLTQPHSVSESPGKTVTISCTGSSGSIASNYVQWYQRRPGSAPTTVIYEDNQRPSGVPDRFSASIDSSSNSASLTISGLKTEDEADYYCQSYDSSNWVFGGGTKLTVL
notes: copies: 2 + 2
B2: IY-2A (antibody, V domains shown)
VH: QVQLVEWGAGLLKPSETLSLTCAVYGGSFSGYYWSWIRQPPGKGLEWIGLINHSGSTNYNPSLKSRVTISLDTSKNQFSLKLTSVTAADTAVYYCARGLGIFGVVTLSDVWGQGTTVTVSS
VL: B1 VL with R39Q, A65G, K82R, S97G, N98I
notes: source: ExpiCHO cells, transiently transfected, purified (rProtein A Sepharose); copies: 2 + 2
B3: IS-9A (antibody, V domains shown)
VH: QVQLVQSGAEVKKPGESLRISCKGSGYSFTNYWISWVRQMPGKGLEWMGRIDPSDSYINYSPSFQGHATISADKSISTAYLQWGSLKASDTAMYYCARGRNYLDSRGRFDYWGQGTLVTVSS
VL: DIVMTQSPSSLSASVGDRVTITCQASQDISNYLNWYQQKSGKAPKLLIYDASNLETGVPSRFSGSGSGTDFTFTISSLQPEDIATYYCQQYDSLGFTFGPGTKVEIR
notes: as for B2
B4: EY-6A (antibody, V domains shown)
VH: EVQLVESGGGVVQPGRSLRLSCAASAFTFSSYDMHWVRQAPGKGLEWVAVISYDGSNKYYADSVKGRFTISRDNSKNTLYLQMNSLRAEDTAVYYCAKDGGKLWVYYFDYWGQGTTVTVSS
VL: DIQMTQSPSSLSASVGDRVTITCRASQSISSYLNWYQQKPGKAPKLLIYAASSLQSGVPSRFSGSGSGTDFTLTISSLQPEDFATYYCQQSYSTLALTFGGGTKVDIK
notes: also called mAb EY-6A; source: ExpiCHO cells, transiently transfected, purified (rProtein A Sepharose); copies: 2 + 2

Each binder was assayed against SARS-CoV RBD-His8-SpyTag003 (SARS-CoV (GenBank ON131087, strain not …, UniProt P59594)) (assay: ELISA). Details: both partners purified.

Binder	binding result
B1	no binding (tested: 50 nM)

What follows are binders tested against RaTG13-CoV RBD-His8-SpyTag003 (Bat coronavirus RaTG13) (assay: ELISA). Details: both partners purified.

Binder	binding result
B2	binds
B1	no binding (tested: 50 nM)
B3	binds
B4	binds

The binders below were run against SHC014-CoV RBD-His8-SpyTag003 (Bat SARS-like coronavirus RsSHC014) (assay: ELISA). Details: both partners purified.

Binder	binding result
B2	binds
B1	no binding (tested: 50 nM)
B3	binds
B4	binds

These binders were tested against Rs4081-CoV RBD-His8-SpyTag003 (Bat SARS-like coronavirus Rs4081) (assay: ELISA). Details: both partners purified.

Binder	binding result
B2	binds
B1	no binding (tested: 50 nM)
B4	binds

These binders were tested against pangolin17 (pang17)-CoV RBD-His8-SpyTag003 (pangolin17-CoV) (assay: ELISA). Details: both partners purified.

Binder	binding result
B2	binds
B1	no binding (tested: 50 nM)
B4	binds

What follows are binders tested against RmYN02-CoV RBD-His8-SpyTag003 (Bat coronavirus RmYN02) (assay: ELISA). Details: both partners purified.

Binder	binding result
B2	binds
B1	no binding (tested: 50 nM)
B4	binds

These binders were tested against T1, Rf1-CoV RBD-His8-SpyTag003 (Bat SARS-like coronavirus Rf1) (assay: ELISA). Details: both partners purified.
T1 construct: clade 2

Binder	binding result
B2	binds
B1	no binding (tested: 50 nM)
B4	binds

Each binder was assayed against WIV1-CoV RBD-His8-SpyTag003 (Bat SARS-like coronavirus WIV1) (assay: ELISA). Details: both partners purified.

Binder	binding result
B2	binds
B1	no binding (tested: 50 nM)
B3	binds
B4	binds

What follows are binders tested against T2, Yunnan2011 (Yun11)-CoV RBD-His8-SpyTag003 (Bat coronavirus Cp/Yunnan2011) (assay: ELISA). Details: both partners purified.
T2 construct: clade 2

Binder	binding result
B2	binds
B1	no binding (tested: 50 nM)
B4	binds

These binders were tested against BM48-31-CoV RBD-His8-SpyTag003 (Bat coronavirus BM48-31) (assay: ELISA). Details: both partners purified.

Binder	binding result
B2	binds
B1	no binding (tested: 50 nM)
B4	binds

These binders were tested against SARS-CoV spike, ELISA antigen (SARS-CoV, strain not named (reference …, UniProt P59594)) (assay: ELISA). Details: both partners purified.

Binder	OD in ELISA at 1 µg/ml [OD]
B2	1.78
B3	1.83
B4	1.67

The binders below were run against SARS-CoV-2 spike (S) protein, ELISA antigen (SARS-CoV-2, Wuhan-Hu-1 (assumed), UniProt P0DTC2) (assay: ELISA). Details: both partners purified.

Binder	OD in ELISA at 1 µg/ml [OD]
B2	1.8
B1	1.76
B3	1.78
B4	1.75

These binders were tested against T3, SARS-CoV-2 RBD (wild type), ELISA antigen (SARS-CoV-2, UniProt P0DTC2) (assay: ELISA). Details: both partners purified.

Binder	OD in ELISA at 1 µg/ml [OD]
B2	1.87
B1	1.79
B3	1.88
B4	1.81

These binders were tested against T3, SARS-CoV-2 RBD (wild type), ELISA … (assay: cell-based or functional assay). Details: not given.

Binder	IC50 of neutralisation of SARS-CoV-2 (potency of IS-9A) [mg/L]
B3	0.03
